The target in test [1] is BTN2A1-BTN3A1 complex peptide on (human). Kind of test: PE-labelled BTN2A1-BTN3A1 complex tetramer on BTN2A.BTN3A-knockout HEK293T cells transfected with the TCR and CD3; reduced against WT G115; full-length, on cells.
For test [2], the target named is BTN2A1 on transfected cells (human) (UniProt Q7KYR7). The experiment in a line: flow cytometry, control tetramer-PE on BTN2A1+ NIH-3T3 cells, mAb 20.1-treated (grey number), GFP+ gate; SAv ctl 22. For orientation: A flow cytometer gives signals particle by particle.
Test [3] deals with G115 Vγ9Vδ2+ TCR wild-type, full-length, on transfected HEK293T cells (human). Kind of test: flow cytometry, tetramer-PE versus CD3-APC on HEK293T cells co-transfected with CD3 and G115 WT TCR; SAv ctl 27.
The target of test [4] is full-length human BTN3A1 on transfected cells (human) (UniProt O00481). Kind of test: flow cytometry, control tetramer-PE on BTN3A1+ NIH-3T3 cells, isotype (IgG1κ)-treated (black number), GFP+ gate; SAv ctl 25.
The target of test [5] is G115 Vγ9Vδ2+ TCR Lys53δ-Ala on transfected HEK293T cells (human). The experiment in a line: flow cytometry, tetramer-PE versus CD3-APC on HEK293T cells co-transfected with CD3 and G115 Lys53δ-Ala TCR; SAv ctl 27.
Test [6] addresses G115 Vγ9Vδ2+ TCR Glu52δ-Ala on transfected HEK293T cells (human). Kind of test: flow cytometry, tetramer-PE versus CD3-APC on HEK293T cells co-transfected with CD3 and G115 Glu52δ-Ala TCR; SAv ctl 32.
Test [7] addresses G115 Vγ9Vδ2+ TCR His85γ-Ala on transfected HEK293T cells (human). Kind of test: flow cytometry, tetramer-PE versus CD3-APC on HEK293T cells co-transfected with CD3 and G115 His85γ-Ala TCR; SAv ctl 27.
The target of test [8] is BTN2A1-BTN3A1-zipper ectodomain complex (wild type) (human) (UniProt Q7KYR7). The experiment in a line: flow cytometry, complex tetramer MFI on transfected BTN2A.BTN3A KO HEK293T cells; mean ± SEM; control.
In test [9] the target is full-length human BTN3A1 on transfected cells (human) (UniProt O00481). Kind of test: flow cytometry, γδTCR tetramer-PE on BTN3A1+ NIH-3T3 cells, isotype (IgG1κ)-treated (black number), GFP+ gate; SAv ctl 28.

BTN2A1 on transfected cells (human), sequence (Q7KYR7 29-527 limits assumed): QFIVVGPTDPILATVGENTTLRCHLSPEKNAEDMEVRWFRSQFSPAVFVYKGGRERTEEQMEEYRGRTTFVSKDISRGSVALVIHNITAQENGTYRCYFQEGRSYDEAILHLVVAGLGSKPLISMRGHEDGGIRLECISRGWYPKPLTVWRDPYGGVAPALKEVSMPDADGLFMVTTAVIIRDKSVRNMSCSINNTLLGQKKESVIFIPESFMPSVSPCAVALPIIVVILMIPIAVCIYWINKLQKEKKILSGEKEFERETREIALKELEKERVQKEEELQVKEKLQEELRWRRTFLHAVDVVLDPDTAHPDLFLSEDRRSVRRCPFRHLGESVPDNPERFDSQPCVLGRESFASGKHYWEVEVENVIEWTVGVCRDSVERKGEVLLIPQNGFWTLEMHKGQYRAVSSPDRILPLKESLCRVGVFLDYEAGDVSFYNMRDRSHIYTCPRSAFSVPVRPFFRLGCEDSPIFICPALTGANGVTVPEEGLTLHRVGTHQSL
G115 Vγ9Vδ2+ TCR His85γ-Ala on transfected HEK293T cells (human), sequence (TCR delta, as listed by the source, chain 1 of 2): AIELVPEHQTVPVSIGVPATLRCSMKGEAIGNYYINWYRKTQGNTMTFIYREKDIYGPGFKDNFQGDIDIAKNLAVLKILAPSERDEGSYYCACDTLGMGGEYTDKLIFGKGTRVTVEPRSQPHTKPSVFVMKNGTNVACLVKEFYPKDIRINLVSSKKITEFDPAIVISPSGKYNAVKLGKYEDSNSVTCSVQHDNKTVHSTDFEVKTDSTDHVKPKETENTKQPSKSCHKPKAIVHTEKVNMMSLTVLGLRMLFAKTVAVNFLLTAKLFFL
G115 Vγ9Vδ2+ TCR His85γ-Ala on transfected HEK293T cells (human), sequence (TCR gamma, as listed by the source, chain 2 of 2): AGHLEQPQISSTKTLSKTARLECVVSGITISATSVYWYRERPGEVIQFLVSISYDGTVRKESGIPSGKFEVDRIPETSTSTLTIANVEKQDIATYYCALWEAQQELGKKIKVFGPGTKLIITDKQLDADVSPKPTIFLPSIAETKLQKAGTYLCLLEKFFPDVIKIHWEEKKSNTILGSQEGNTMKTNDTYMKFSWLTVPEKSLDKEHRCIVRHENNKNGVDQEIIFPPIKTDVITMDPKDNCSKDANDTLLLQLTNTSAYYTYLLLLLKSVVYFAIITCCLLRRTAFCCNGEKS

Regarding G115 Vγ9Vδ2+ TCR K53D, in [1], the fold change of tetramer MFI against WT G115 TCR stood at 0.8 fold.
mCD1d tet. ctl: the MFI of PE was found to be 20 in test [2] and 32 in test [4]. The median fluorescence of PE stood at 20 in test [3], 23 in test [5], 28 in test [6] and 22 in [7].
Consider “CD3 complex on HEK293T cells transfected with CD3 only (receptor)”, for which the fold-change of BTN2A1-BTN3A1 complex tetramer MFI relative to WT G115 TCR in test [8] came out at 0.3 fold.
As to “chimeric γδTCR tetramer: G115 Vγ9+ γ-chain with 9C2 Vδ1+ δ-chain”, the MFI of PE in test [9] was 24.
As to G115 Vγ9Vδ2+ TCR K53E, the fold change of tetramer MFI against WT G115 TCR in [1] stood at 0.7 fold.
